According to paper PMC6131271:
Each block holds one molecule with its values, some of them ahead of it.

Legend:
[1] = biological target: bovine Achilles tendon collagen type I film, 100% EDC/NHS crosslinked (bovine) (UniProt P02453)
[2] = biological target: Diaz-ES-VWFIIINle (diazirine-bearing end-stapled triple-helical peptide of three VWFIIINle strands)
[3] = biological target: III-23, GPC(GPP)5GPOGPSGPRGQOGVMGFOGPKGNDGAO(GPP)5GPC; assay: ELISA; control wells coated with III-23 or BSA; VWF-A3-GST at 5 μg/ml in PBS 0.1% BSA, room temperature; anti-GST HRP, A450
[4] = biological target: bovine Achilles tendon collagen type I film, 100% EDC/NHS crosslinked (bovine) (UniProt P02453); assay: ELISA; 100% EDC/NHS crosslinked collagen films in 96-well plates, without peptide or incubated with peptide at 5 μg/ml for 30 min, then UV (365 nm) for 5 min, washed with citrate buffer pH 3 and PBS; VWF-A3-GST at 5 μg/ml in PBS 0.1% BSA, room temperature; anti-GST HRP, A450
[5] = biological target: Diaz-ES-VWFIIINle (diazirine-bearing end-stapled triple-helical peptide of three VWFIIINle strands); assay: as above
[6] = biological target: bovine Achilles tendon collagen type I film, 100% EDC/NHS crosslinked (bovine) (UniProt P02453); assay: ELISA; collagen films in 96-well plates, EDC/NHS crosslinked 0% to 100%, blocked with PBS 5% BSA; VWF A3-GST at 5 μg/ml in PBS 0.1% BSA, room temperature (2 h in the methods, 1 h in the legend); anti-GST HRP, TMB, A450
[7] = biological target: bovine Achilles tendon collagen type I film, 50% EDC/NHS crosslinked (bovine) (UniProt P02453); assay: as above
[8] = biological target: bovine Achilles tendon collagen type I, non-crosslinked film (bovine) (UniProt P02453); assay: as above
[9] = biological target: bovine Achilles tendon collagen type I film, 100% EDC/NHS crosslinked (bovine) (UniProt P02453); assay: ELISA; 100% EDC/NHS crosslinked collagen films in 96-well plates, without peptide or incubated with peptide at 5 μg/ml, left in the dark (no UV), washed with citrate buffer pH 3 and PBS; VWF-A3-GST at 5 μg/ml in PBS 0.1% BSA, room temperature; anti-GST HRP, A450
[10] = biological target: Diaz-ES-VWFIIINle (diazirine-bearing end-stapled triple-helical peptide of three VWFIIINle strands); assay: as above
[11] = biological target: bovine Achilles tendon collagen type I film, 100% EDC/NHS crosslinked (bovine) (UniProt P02453); assay: ELISA; 100% EDC/NHS crosslinked collagen films in 96-well plates, without peptide or incubated with peptide at 5 μg/ml for 30 min, then UV (365 nm) for 5 min, washed with citrate buffer pH 3 and PBS; DDR2-Fc at 1 μg/ml in PBS 0.1% BSA and 0.05% Tween-20, 2 h, room temperature; anti-Fc HRP, A450
[12] = biological target: Diaz-ES-VWFIIINle (diazirine-bearing end-stapled triple-helical peptide of three VWFIIINle strands); assay: as above
[13] = biological target: bovine Achilles tendon collagen type I film, 100% EDC/NHS crosslinked (bovine) (UniProt P02453); assay: ELISA; 100% EDC/NHS crosslinked collagen films in 96-well plates, without peptide or incubated with peptide at 5 μg/ml, left in the dark (no UV), washed with citrate buffer pH 3 and PBS; DDR2-Fc at 1 μg/ml in PBS 0.1% BSA and 0.05% Tween-20, 2 h, room temperature; anti-Fc HRP, A450
[14] = biological target: bovine Achilles tendon collagen type I film, 100% EDC/NHS crosslinked (bovine) (UniProt P02453); assay: ELISA; collagen films in 96-well plates, EDC/NHS crosslinked 0% to 100%, blocked with PBS 5% BSA; DDR2-Fc at 1 μg/ml in PBS 0.1% BSA with 0.05% Tween-20, 2 h, room temperature; anti-Fc HRP, TMB, A370 read before addition of sulfuric acid
[15] = biological target: bovine Achilles tendon collagen type I, non-crosslinked film (bovine) (UniProt P02453); assay: as above
[16] = biological target: All other peptide treatments; assay: ELISA; as a6 and a7, the three other peptide treatments taken together (VWFIIINle with UV, VWFIIINle without UV, Diaz-ES-VWFIIINle without UV) on 100% crosslinked films; DDR2-Fc at 1 μg/ml; A450

- platelet surface coverage; human whole blood (full-length plasma VWF) perfused at 1000 s^-1 over 100% crosslinked films without peptide [1]: 5.6%
- platelet surface coverage; human whole blood (full-length plasma VWF) perfused at 1000 s^-1 over 100% crosslinked films with Diaz-ES-VWFIIINle after UV [2]: 42.9%
- A450 [3]: 1.42 absorbance
- A450 [4]: 0.24 absorbance
- A450 [5]: 1.8 absorbance
- A450 [6]: 0.13 absorbance
- A450 [7]: 0.12 absorbance
- A450 [8]: 0.57 absorbance
- A450 [9]: 0.26 absorbance
- A450 [10]: 1.25 absorbance
Molecule: recombinant GST-tagged human VWF-A3 domain (from UniProt P04275 23-2813) (domain or fragment)

- A450 [11]: 0.61 absorbance
- A450 [12]: 1.9 absorbance
- A450 [13]: 0.61 absorbance
- A370 [14]: 0.18 absorbance
- A370 [15]: 0.32 absorbance
- A450 [16]: 1.16 to 1.43 absorbance
B1: Recombinant soluble protein comprising the entire DDR2 extracellular region, fused to the Fc-sequence of human IgG2 (Fc fusion)
chain: KAQVNPAICRYPLGMSGGQIPDEDITASSQWSESTAAKYGRLDSEEGDGAWCPEIPVEPDDLKEFLQIDLHTLHFITLVGTQGRHAGGHGIEFAPMYKINYSRDGTRWISWRNRHGKQVLDGNSNPYDIFLKDLEPPIVARFVRFIPVTDHSMNVCMRVELYGCVWLDGLVSYNAPAGQQFVLPGGSIIYLNDSVYDGAVGYSMTEGLGQLTDGVSGLDDFTQTHEYHVWPGYDYVGWRNESATNGYIEIMFEFDRIRNFTTMKVHCNNMFAKGVKIFKEVQCYFRSEASEWEPNAISFPLVLDDVNPSARFVTVPLHHRMASAIKCQYHFADTWMMFSEITFQSDAAMYNNSEALPTSPMAPTTYDPMLKVDDSNTR
